Assay results published in the supplement of paper PMC11246515.
± gives the standard deviation of the averaged measurements.

Assay: total protein half-life in vivo (active degradation + dilution); higher = more stable protein
[1] = E. coli NCM3722 delta-clpP delta-lon delta-hslV, growth: N-lim chemostat, doubling time 6 h
[2] = E. coli NCM3722 delta-hslV, growth: N-lim chemostat, doubling time 6 h
[3] = E. coli NCM3722 delta-smpB, growth: N-lim chemostat, doubling time 6 h
[4] = wild type E. coli NCM3722, growth: C-lim chemostat, doubling time 3 h
[5] = wild type E. coli NCM3722, growth: C-lim chemostat, doubling time 6 h
[6] = wild type E. coli NCM3722, growth: C-lim chemostat, doubling time 12 h
[7] = wild type E. coli NCM3722, growth: N-lim chemostat, doubling time 6 h
[8] = wild type E. coli NCM3722, growth: N-lim chemostat, doubling time 12 h
[9] = wild type E. coli NCM3722, growth: P-lim chemostat, doubling time 6 h
[10] = wild type E. coli NCM3722, growth: P-lim chemostat, doubling time 12 h
[11] = E. coli NCM3722 delta-clpP, growth: N-lim chemostat, doubling time 6 h
[12] = E. coli NCM3722 delta-lon, growth: N-lim chemostat, doubling time 6 h

Sequence	total protein half-life in vivo [1]	total protein half-life in vivo [2]	total protein half-life in vivo [3]	total protein half-life in vivo [4]	total protein half-life in vivo [5]	total protein half-life in vivo [6]	total protein half-life in vivo [7]	total protein half-life in vivo [8]	total protein half-life in vivo [9]	total protein half-life in vivo [10]	total protein half-life in vivo [11]	total protein half-life in vivo [12]
MNNMFEPPKNYNEMLPKLHKATFLNTLIYCILLVIYEYIPLITLPTKYVPPIKDHESFINWALSFGILPCAFAIFAYLISGALDLHNNAAKLLRVRYLWDKHLIIKPLSRRAGVNRKLNKDEAHNVMSNLYYPEVRKIEDKHYIELFWNKVYYFWIFFEFSIIALISFLIIFFCKQMDIFHVEGSLLSLFFFVILSFSVSGIIFALTVKPRTESQVGKIPDDKIKEFFTKNNIN	5.36 h	4.62 h	5.48 ± 0.069 h	2.94 h	4.97 ± 0.76 h	10.6 ± 0.83 h	5.04 h	7.86 h	5.56 ± 0.71 h	11.3 ± 1.6 h	–	–
MNNNLQRDAIAAAIDVLNEERVIAYPTEAVFGVGCDPDSETAVMRLLELKQRPVDKGLILIAANYEQLKPYIDDTMLTDVQRETIFSRWPGPVTFVFPAPATTPRWLTGRFDSLAVRVTDHPLVVALCQAYGKPLVSTSANLSGLPPCRTVDEVRAQFGAAFPVVPGETGGRLNPSEIRDALTGELFRQG	4.72 ± 0.33 h	4.12 ± 0.43 h	3.89 ± 0.05 h	–	5.61 ± 0.47 h	9.17 ± 0.24 h	4.08 ± 0.38 h	5.63 ± 1.6 h	5.25 ± 0.24 h	11 ± 1.6 h	4.4 ± 0.6 h	5.29 ± 0.27 h
MNNNTTAPTYTLRGLQLIGWRDMQHALDYLFADGQLKQGTLVAINAEKMLTIEDNAEVRELINAAEFKYADGISVVRSVRKKYPQAQVSRVAGADLWEELMARAGKEGTPVFLVGGKPEVLAQTEAKLRNQWNVNIVGSQDGYFKPEQRQALFERIHASGAQIVTVAMGSPKQEIIMRDCRLVHPDALYMGVGGTYDVFTGHVKRAPKIWQTLGLEWLYRLLSQPSRIKRQLRLLRYLRWHYTGNL	6.19 ± 0.52 h	6.18 ± 0.083 h	6.88 ± 0.092 h	3.045 ± 0.02 h	5.84 ± 0.15 h	12.2 ± 1.7 h	6.58 ± 0.62 h	12.6 ± 0.13 h	5.76 ± 0.52 h	13.4 ± 1.2 h	6.04 ± 0.25 h	7.03 ± 0.76 h
MNNSINHKFHHISRAEYQELLAVSRGDAVADYIIDNVSILDLINGGEISGPIVIKGRYIAGVGAEYTDAPALQRIDARGATAVPGFIDAHLHIESSMMTPVTFETATLPRGLTTVICDPHEIVNVMGEAGFAWFARCAEQARQNQYLQVSSCVPALEGCDVNGASFTLEQMLAWRDHPQVTGLAEMMDYPGVISGQNALLDKLDAFRHLTLDGHCPGLGGKELNAYITAGIENCHESYQLEEGRRKLQLGMSLMIREGSAARNLNALAPLINEFNSPQCMLCTDDRNPWEIAHEGHIDALIRRLIEQHNVPLHVAYRVASWSTARHFGLNHLGLLAPGKQADIVLLSDARKVTVQQVLVKGEPIDAQTLQAEESARLAQSAPPYGNTIARQPVSASDFALQFTPGKRYRVIDVIHNELITHSHSSVYSENGFDRDDVSFIAVLERYGQRLAPACGLLGGFGLNEGALAATVSHDSHNIVVIGRSAEEMALAVNQVIQDGGGLCVVRNGQVQSHLPLPIAGLMSTDTAQSLAEQIDALKAAARECGPLPDEPFIQMAFLSLPVIPALKLTSQGLFDGEKFAFTTLEVTE	4.53 h	–	–	2.16 ± 0.17 h	3.19 ± 0.16 h	4.26 ± 0.098 h	–	–	3.61 ± 1.4 h	4.14 ± 0.77 h	3.24 ± 0.11 h	–
MNPIAVTLLTGFLGAGKTTLLRHILNEQHGYKIAVIENEFGEVSVDDQLIGDRATQIKTLTNGCICCSRSNELEDALLDLLDNLDKGNIQFDRLVIECTGMADPGPIIQTFFSHEVLCQRYLLDGVIALVDAVHADEQMNQFTIAQSQVGYADRILLTKTDVAGEAEKLHERLARINARAPVYTVTHGDIDLGLLFNTNGFMLEENVVSTKPRFHFIADKQNDISSIVVELDYPVDISEVSRVMENLLLESADKLLRYKGMLWIDGEPNRLLFQGVQRLYSADWDRPWGDEKPHSTMVFIGIQLPEEEIRAAFAGLRK	5.11 ± 1.4 h	3.471 ± 0.032 h	3.65 ± 0.28 h	2.876 ± 0.022 h	5.139 ± 0.017 h	8.715 ± 0.082 h	3.52 ± 0.3 h	6.14 ± 0.095 h	4.95 ± 0.4 h	10 ± 0.33 h	3.49 ± 0.12 h	3.97 ± 0.38 h
MNPLLTDSRRQALRSASHWYAVLSGERVSPQQEARWQQWYEQDQDNQWAWQQVENLRNQLGGVPGDVASRALHDTRLTRRHVMKGLLLLLGAGGGWQLWQSETGEGLRADYRTAKGTVSRQQLEDGSLLTLNTQSAADVRFDAHQRTVRLWYGEIAITTAKDALQRPFRVLTRQGQLTALGTEFTVRQQDNFTQLDVQQHAVEVLLASAPAQKRIVNAGESLQFSASEFGAVKPLDDESTSWTKDILSFSDKPLGEVIATLTRYRNGVLRCDPAVAGLRLSGTFPLKNTDAILNVIAQTLPVKIQSITRYWINISPL	–	–	0.672 h	–	–	–	–	–	–	–	–	–
MNPQLLRVTNRIIERSRETRSAYLARIEQAKTSTVHRSQLACGNLAHGFAACQPEDKASLKSMLRNNIAIITSYNDMLSAHQPYEHYPEIIRKALHEANAVGQVAGGVPAMCDGVTQGQDGMELSLLSREVIAMSAAVGLSHNMFDGALFLGVCDKIVPGLTMAALSFGHLPAVFVPSGPMASGLPNKEKVRIRQLYAEGKVDRMALLESEAASYHAPGTCTFYGTANTNQMVVEFMGMQLPGSSFVHPDSPLRDALTAAAARQVTRMTGNGNEWMPIGKMIDEKVVVNGIVALLATGGSTNHTMHLVAMARAAGIQINWDDFSDLSDVVPLMARLYPNGPADINHFQAAGGVPVLVRELLKAGLLHEDVNTVAGFGLSRYTLEPWLNNGELDWREGAEKSLDSNVIASFEQPFSHHGGTKVLSGNLGRAVMKTSAVPVENQVIEAPAVVFESQHDVMPAFEAGLLDRDCVVVVRHQGPKANGMPELHKLMPPLGVLLDRCFKIALVTDGRLSGASGKVPSAIHVTPEAYDGGLLAKVRDGDIIRVNGQTGELTLLVDEAELAAREPHIPDLSASRVGTGRELFSALREKLSGAEQGATCITF [P0ADF6]	3.58 ± 0.62 h	3.51 ± 0.99 h	2.97 ± 0.12 h	3.07 ± 0.33 h	–	8.61 h	2.98 ± 0.2 h	4.531 ± 0.012 h	5.33 ± 0.3 h	9.86 ± 0.35 h	3.24 h	3.46 h
